Measurements as given in patent publication US20140356418A1.

How the values were obtained:
[1] = target: Aβ42 fibrils (immobilized Aβ(1-42) fibrils) (UniProt P05067); assay: SPR, Aβ fibrils (summary of the Examples)
[2] = target: Aβ42 fibrils (immobilized Aβ(1-42) fibrils) (UniProt P05067); assay: SPR (Sensi Q), immobilized Aβ(1-42) fibrils, fit of a single curve; (the concentration, 1 or 3 µM, is not given)
[3] = target: Aβ42 fibrils (immobilized Aβ(1-42) fibrils) (UniProt P05067); assay: SPR (Sensi Q), immobilized Aβ(1-42) fibrils, fit of a single curve; inset table row 2 (the row's concentration, 1 or 3 µM, is not given)
[4] = target: Aβ42 fibrils (immobilized Aβ(1-42) fibrils) (UniProt P05067); assay: SPR, Aβ42 fibrils immobilized, Langmuir 1:1 fit
[5] = target: Aβ42 fibrils (immobilized Aβ(1-42) fibrils) (UniProt P05067); assay: SPR, Aβ42 fibrils immobilized, Langmuir 1:1 fit, curves fitted separately; lower end of the range from curves fitted separately (1, 3, 6 µM RI-OR2-TAT)
[6] = target: Aβ42 fibrils (immobilized Aβ(1-42) fibrils) (UniProt P05067); assay: SPR, Aβ42 fibrils immobilized, Langmuir 1:1 fit, curves fitted separately; upper end of the range from curves fitted separately (1, 3, 6 µM RI-OR2-TAT)

Chain of Aβ42 fibrils (immobilized Aβ(1-42) fibrils) (P05067 672-713 limits assumed): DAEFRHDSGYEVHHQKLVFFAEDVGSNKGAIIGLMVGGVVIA

Substance	Kd [1]	Kd [2]	koff [2]	kon [2]	Kd [3]	koff [3]	kon [3]	koff [4]	kon [4]	Kd [5]	Kd [6]
PINPs (Peptide Inhibitor NanoParticles): RI-OR2-TAT covalently attached to nanoliposomes	14 to 44 nM	14.8 nM	6.71e-05 s⁻¹	4520 M⁻¹ s⁻¹	44.7 nM	5.31e-05 s⁻¹	1190 M⁻¹ s⁻¹	–	–	–	–
RI-OR2-TAT (Ac-rGffvlkGrrrrqrrkkrGy-NH2) (peptide)	41 to 75 nM	75.6 nM	0.00096 s⁻¹	12700 M⁻¹ s⁻¹	41.5 nM	0.000994 s⁻¹	23900 M⁻¹ s⁻¹	0.00037 s⁻¹	3680 M⁻¹ s⁻¹	58 to 125 nM	58 to 125 nM
